From US20180074053A1 (priority 2016, published 2018)
Like-named read-outs stand apart in the source and are kept apart here. Non-standard residues stand in square brackets, D forms with d. No end group written: not given here.

Legend:
[1] = biological target: GPCR40 (Homo sapiens, UniProt O14842); test: cell-based
Method: (§1) The platform uses ChemiScreen GPCR stable cell lines that are used for real-time calcium flux assays to rapidly, screen a spectrum of GPCRs. […] Percentage activation values were determined upon initial addition of compound(s). Percentage activation and inhibition values were determined for each GPCR relative to the reference compounds.
(§2) Assays were performed according to the manufacturer's instructions. […] The assay plate was read by the FLIPR TETRA® (Molecular Devices, Sunnyvale, Calif.). All assay plate data were subjected to appropriate baseline corrections and the maximum fluorescence values were processed to calculate percentage activation (relative to ECmax reference agonist and vehicle control values).

[2] = biological target: MCHR2 (Homo sapiens, UniProt Q969V1); test: cell-based
Sequence of MCHR2 (Q969V1 whole entry): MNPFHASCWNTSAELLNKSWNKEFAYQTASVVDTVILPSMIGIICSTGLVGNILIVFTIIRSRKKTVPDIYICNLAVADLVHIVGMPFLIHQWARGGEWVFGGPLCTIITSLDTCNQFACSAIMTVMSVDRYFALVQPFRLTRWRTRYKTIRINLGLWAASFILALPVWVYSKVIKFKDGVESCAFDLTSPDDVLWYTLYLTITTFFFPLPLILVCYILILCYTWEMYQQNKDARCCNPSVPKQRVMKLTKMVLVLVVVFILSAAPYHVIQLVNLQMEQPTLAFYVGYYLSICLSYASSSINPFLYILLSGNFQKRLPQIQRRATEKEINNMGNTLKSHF
Method: as §1, §2

[3] = biological target: MRGX2 (Homo sapiens, UniProt Q96LB1); test: cell-based
Sequence of MRGX2 (Q96LB1 whole entry): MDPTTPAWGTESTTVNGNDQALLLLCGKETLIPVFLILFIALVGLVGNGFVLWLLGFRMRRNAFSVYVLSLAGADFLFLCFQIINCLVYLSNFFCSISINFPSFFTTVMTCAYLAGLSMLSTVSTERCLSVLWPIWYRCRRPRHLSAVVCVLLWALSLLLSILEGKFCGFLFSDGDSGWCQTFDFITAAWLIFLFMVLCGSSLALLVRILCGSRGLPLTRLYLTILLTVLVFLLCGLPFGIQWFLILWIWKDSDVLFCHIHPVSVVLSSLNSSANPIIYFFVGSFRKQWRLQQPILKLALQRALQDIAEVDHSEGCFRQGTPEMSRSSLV
Method: as §1, §2

[4] = biological target: Motilin (Homo sapiens, UniProt O43193); test: cell-based
Sequence of Motilin (O43193 whole entry): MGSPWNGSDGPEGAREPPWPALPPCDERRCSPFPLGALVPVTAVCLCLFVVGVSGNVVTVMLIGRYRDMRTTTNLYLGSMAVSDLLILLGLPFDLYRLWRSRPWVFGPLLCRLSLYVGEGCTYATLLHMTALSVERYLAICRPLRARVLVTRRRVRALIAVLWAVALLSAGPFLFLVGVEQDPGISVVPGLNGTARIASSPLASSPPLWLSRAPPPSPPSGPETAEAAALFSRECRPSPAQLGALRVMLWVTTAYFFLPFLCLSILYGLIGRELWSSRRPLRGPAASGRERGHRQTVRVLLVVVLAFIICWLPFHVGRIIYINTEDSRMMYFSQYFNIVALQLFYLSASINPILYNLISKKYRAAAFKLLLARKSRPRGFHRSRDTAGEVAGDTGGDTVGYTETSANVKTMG
Method: as §1, §2

[5] = biological target: NPBW1 (Homo sapiens, UniProt P48145); test: cell-based
Method: as §1, §2

[6] = biological target: MC2 (UniProt Q01718 1-297); test: cell-based or functional assay
Sequence of MC2 (Q01718 whole entry): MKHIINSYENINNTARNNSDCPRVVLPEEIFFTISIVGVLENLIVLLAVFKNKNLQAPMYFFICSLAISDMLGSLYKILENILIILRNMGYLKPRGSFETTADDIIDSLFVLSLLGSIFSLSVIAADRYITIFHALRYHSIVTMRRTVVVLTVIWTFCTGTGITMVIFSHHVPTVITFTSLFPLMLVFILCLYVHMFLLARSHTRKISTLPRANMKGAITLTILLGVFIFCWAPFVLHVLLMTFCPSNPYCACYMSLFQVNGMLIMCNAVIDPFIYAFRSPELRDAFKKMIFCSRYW

[7] = biological target: NK1 (UniProt P25103 1-407); test: cell-based or functional assay
Sequence of NK1 (P25103 whole entry): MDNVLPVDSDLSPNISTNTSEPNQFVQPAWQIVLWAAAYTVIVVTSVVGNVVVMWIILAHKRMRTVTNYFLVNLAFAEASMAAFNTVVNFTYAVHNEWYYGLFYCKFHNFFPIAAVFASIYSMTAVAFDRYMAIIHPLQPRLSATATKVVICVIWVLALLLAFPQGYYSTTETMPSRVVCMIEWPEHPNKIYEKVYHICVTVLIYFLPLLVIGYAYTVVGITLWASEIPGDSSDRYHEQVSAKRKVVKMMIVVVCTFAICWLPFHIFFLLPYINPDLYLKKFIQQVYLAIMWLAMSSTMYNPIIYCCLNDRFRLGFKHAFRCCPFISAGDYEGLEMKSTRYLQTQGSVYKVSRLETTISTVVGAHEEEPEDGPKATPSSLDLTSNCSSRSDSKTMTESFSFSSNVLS

[8] = biological target: MC4 (UniProt P32245 1-332); test: cell-based or functional assay
Sequence of MC4 (P32245 whole entry): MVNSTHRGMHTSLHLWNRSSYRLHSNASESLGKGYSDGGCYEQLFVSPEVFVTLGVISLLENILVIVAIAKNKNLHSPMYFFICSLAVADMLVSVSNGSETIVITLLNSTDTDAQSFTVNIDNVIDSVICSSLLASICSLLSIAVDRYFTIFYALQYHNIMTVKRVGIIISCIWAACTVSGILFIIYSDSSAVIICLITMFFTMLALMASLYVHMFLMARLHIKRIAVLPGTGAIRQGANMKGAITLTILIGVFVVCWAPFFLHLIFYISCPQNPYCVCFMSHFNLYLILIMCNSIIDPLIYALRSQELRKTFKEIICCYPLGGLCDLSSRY

[9] = biological target: MC5 (UniProt P33032 1-325); test: cell-based or functional assay
Sequence of MC5 (P33032 whole entry): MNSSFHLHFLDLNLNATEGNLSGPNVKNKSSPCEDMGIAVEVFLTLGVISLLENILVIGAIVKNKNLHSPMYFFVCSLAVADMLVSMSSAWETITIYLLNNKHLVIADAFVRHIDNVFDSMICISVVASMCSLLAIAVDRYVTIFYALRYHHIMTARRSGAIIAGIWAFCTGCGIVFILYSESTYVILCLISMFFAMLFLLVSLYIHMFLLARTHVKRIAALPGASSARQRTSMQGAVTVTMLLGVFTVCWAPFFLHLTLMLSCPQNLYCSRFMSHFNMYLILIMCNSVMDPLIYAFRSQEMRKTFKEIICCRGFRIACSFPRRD

[10] = biological target: Motilin (GPCR target; motilin receptor) (UniProt O43193 1-412, limits assumed); test: cell-based or functional assay
Sequence of Motilin (GPCR target; motilin receptor) (O43193 whole entry): as the sequence (O43193 whole entry) above

[11] = biological target: T1, NPBW1 (UniProt P48145 1-328); test: cell-based or functional assay
T1 sequence (looked up): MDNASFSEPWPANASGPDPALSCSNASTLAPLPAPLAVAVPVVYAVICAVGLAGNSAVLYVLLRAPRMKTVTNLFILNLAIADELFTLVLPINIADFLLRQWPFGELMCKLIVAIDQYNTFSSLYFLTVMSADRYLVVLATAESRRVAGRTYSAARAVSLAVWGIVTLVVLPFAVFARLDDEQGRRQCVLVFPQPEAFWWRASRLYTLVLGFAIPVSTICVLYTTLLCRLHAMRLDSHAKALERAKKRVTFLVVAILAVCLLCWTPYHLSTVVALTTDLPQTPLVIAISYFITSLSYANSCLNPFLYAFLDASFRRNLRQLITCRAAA

[12] = biological target: GPCR40, the free fatty acid receptor (human, UniProt O14842 1-300); test: cell-based or functional assay
Sequence of GPCR40, the free fatty acid receptor (O14842 whole entry): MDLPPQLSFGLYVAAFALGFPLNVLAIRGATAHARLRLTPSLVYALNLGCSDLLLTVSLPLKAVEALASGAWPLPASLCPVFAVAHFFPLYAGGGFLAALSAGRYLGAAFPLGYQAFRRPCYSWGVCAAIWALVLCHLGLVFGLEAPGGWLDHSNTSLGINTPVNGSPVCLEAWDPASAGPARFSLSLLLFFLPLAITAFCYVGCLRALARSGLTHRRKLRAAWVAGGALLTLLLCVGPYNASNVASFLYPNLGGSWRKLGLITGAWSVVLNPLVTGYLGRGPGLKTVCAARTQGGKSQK

[13] = biological target: T2, NK2 (UniProt P21452 1-398); test: cell-based or functional assay
T2 sequence (looked up): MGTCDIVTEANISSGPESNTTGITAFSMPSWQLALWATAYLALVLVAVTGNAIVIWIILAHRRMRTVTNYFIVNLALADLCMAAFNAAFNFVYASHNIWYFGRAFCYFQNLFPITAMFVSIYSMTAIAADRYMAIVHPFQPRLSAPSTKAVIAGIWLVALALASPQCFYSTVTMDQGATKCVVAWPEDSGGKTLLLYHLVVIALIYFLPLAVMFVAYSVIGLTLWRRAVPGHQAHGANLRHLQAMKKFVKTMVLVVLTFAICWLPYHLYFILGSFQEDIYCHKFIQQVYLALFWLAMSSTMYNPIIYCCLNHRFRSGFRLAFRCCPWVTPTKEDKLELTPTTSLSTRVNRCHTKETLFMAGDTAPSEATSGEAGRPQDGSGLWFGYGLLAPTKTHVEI

[14] = biological target: NOP (UniProt P41146 1-370); test: cell-based or functional assay
Sequence of NOP (P41146 whole entry): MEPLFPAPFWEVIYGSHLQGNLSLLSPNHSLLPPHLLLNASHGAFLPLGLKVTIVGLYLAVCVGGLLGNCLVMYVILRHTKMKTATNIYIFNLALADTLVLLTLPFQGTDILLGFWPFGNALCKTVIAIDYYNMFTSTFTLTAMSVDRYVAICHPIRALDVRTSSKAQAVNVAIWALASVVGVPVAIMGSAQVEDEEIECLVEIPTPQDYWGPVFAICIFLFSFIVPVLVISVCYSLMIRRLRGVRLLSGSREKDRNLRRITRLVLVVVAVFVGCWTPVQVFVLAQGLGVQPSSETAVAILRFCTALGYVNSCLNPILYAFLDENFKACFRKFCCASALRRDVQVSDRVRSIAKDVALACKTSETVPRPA

[15] = read-out: percent activation compared to standards, DT-110 @ 1.25 mM, Avg.
[16] = read-out: percent activation compared to standards, DT-110 @ 1.25 mM, n1
[17] = read-out: percent activation compared to standards, DT-110 @ 1.25 mM, n2
[18] = read-out: percent activation compared to standards, DT-110 @ 12.5 mM, Avg.
[19] = read-out: percent activation compared to standards, DT-110 @ 12.5 mM, n1
[20] = read-out: percent activation compared to standards, DT-110 @ 12.5 mM, n2

Sequence of GPCR40 (O14842 whole entry): as the sequence (O14842 whole entry) above

## CC(C)C[C@@H](NC(=O)CNC(=O)CN)C(=O)O
[1]; [15]
  activation at 1250 µM: -9.5%
[1]; [16]
  activation at 1250 µM: -9.3%
[1]; [17]
  activation at 1250 µM: -9.6%
[1]; [18]
  activation at 12500 µM: 50.2%
[1]; [19]
  activation at 12500 µM: 55.9%
[1]; [20]
  activation at 12500 µM: 44.5%
[2]; [15]
  activation at 1250 µM: 0.5%
[2]; [16]
  activation at 1250 µM: 0.1%
[2]; [17]
  activation at 1250 µM: 0.8%
[2]; [18]
  activation at 12500 µM: -0.9%
[2]; [19]
  activation at 12500 µM: -0.8%
[2]; [20]
  activation at 12500 µM: -0.9%
[3]; [15]
  activation at 1250 µM: -0.2%
[3]; [16]
  activation at 1250 µM: 0%
[3]; [17]
  activation at 1250 µM: -0.4%
[3]; [18]
  activation at 12500 µM: 0%
[3]; [19]
  activation at 12500 µM: 0.4%
[3]; [20]
  activation at 12500 µM: -0.4%
[4]; [15]
  activation at 1250 µM: -0.3%
[4]; [16]
  activation at 1250 µM: -0.3%
[4]; [17]
  activation at 1250 µM: -0.3%
[4]; [18]
  activation at 12500 µM: -0.4%
[4]; [19]
  activation at 12500 µM: -0.3%
[4]; [20]
  activation at 12500 µM: -0.5%
[5]; [15]
  activation at 1250 µM: 0.2%
[5]; [16]
  activation at 1250 µM: 1.6%
[5]; [17]
  activation at 1250 µM: -1.1%
[5]; [18]
  activation at 12500 µM: -0.9%
[5]; [19]
  activation at 12500 µM: -0.8%
[5]; [20]
  activation at 12500 µM: -0.9%

## Gly-Gly-[dL] [DT-110, tripeptide glycine-glycine-D-leucine (GGdL)]
[6]
  percent activation (calcium flux, GPCRProfiler), DT-110 @ 1.25 mM, Avg.: -0.7%
  percent activation (calcium flux, GPCRProfiler), DT-110 @ 1.25 mM, n1: 0.6%
  percent activation (calcium flux, GPCRProfiler), DT-110 @ 1.25 mM, n2: -2%
  percent activation (calcium flux, GPCRProfiler), DT-110 @ 12.5 mM, Avg.: -1%
  percent activation (calcium flux, GPCRProfiler), DT-110 @ 12.5 mM, n1: -1%
  percent activation (calcium flux, GPCRProfiler), DT-110 @ 12.5 mM, n2: -0.9%
[7]
  percent activation (calcium flux, GPCRProfiler), DT-110 @ 1.25 mM, Avg.: -0.9%
  percent activation (calcium flux, GPCRProfiler), DT-110 @ 1.25 mM, n1: -1%
  percent activation (calcium flux, GPCRProfiler), DT-110 @ 1.25 mM, n2: -0.9%
  percent activation (calcium flux, GPCRProfiler), DT-110 @ 12.5 mM, Avg.: -1.1%
  percent activation (calcium flux, GPCRProfiler), DT-110 @ 12.5 mM, n1: -1%
  percent activation (calcium flux, GPCRProfiler), DT-110 @ 12.5 mM, n2: -1.1%
[8]
  percent activation (calcium flux, GPCRProfiler), DT-110 @ 1.25 mM, Avg.: -0.5%
  percent activation (calcium flux, GPCRProfiler), DT-110 @ 1.25 mM, n1: 3%
  percent activation (calcium flux, GPCRProfiler), DT-110 @ 1.25 mM, n2: -4%
  percent activation (calcium flux, GPCRProfiler), DT-110 @ 12.5 mM, Avg.: 3.4%
  percent activation (calcium flux, GPCRProfiler), DT-110 @ 12.5 mM, n1: -0.2%
  percent activation (calcium flux, GPCRProfiler), DT-110 @ 12.5 mM, n2: 7%
[9]
  percent activation (calcium flux, GPCRProfiler), DT-110 @ 1.25 mM, Avg.: 0%
  percent activation (calcium flux, GPCRProfiler), DT-110 @ 1.25 mM, n1: 0.7%
  percent activation (calcium flux, GPCRProfiler), DT-110 @ 1.25 mM, n2: -0.8%
  percent activation (calcium flux, GPCRProfiler), DT-110 @ 12.5 mM, Avg.: -0.3%
  percent activation (calcium flux, GPCRProfiler), DT-110 @ 12.5 mM, n1: -0.6%
  percent activation (calcium flux, GPCRProfiler), DT-110 @ 12.5 mM, n2: 0%
[10]
  percent activation (calcium flux, GPCRProfiler), DT-110 @ 1.25 mM, Avg.: -0.3%
  percent activation (calcium flux, GPCRProfiler), DT-110 @ 1.25 mM, n1: -0.3%
  percent activation (calcium flux, GPCRProfiler), DT-110 @ 1.25 mM, n2: -0.3%
  percent activation (calcium flux, GPCRProfiler), DT-110 @ 12.5 mM, Avg.: -0.4%
  percent activation (calcium flux, GPCRProfiler), DT-110 @ 12.5 mM, n1: -0.3%
  percent activation (calcium flux, GPCRProfiler), DT-110 @ 12.5 mM, n2: -0.5%
[11]
  percent activation (calcium flux, GPCRProfiler), DT-110 @ 1.25 mM, Avg.: 0.2%
  percent activation (calcium flux, GPCRProfiler), DT-110 @ 1.25 mM, n1: 1.6%
  percent activation (calcium flux, GPCRProfiler), DT-110 @ 1.25 mM, n2: -1.1%
  percent activation (calcium flux, GPCRProfiler), DT-110 @ 12.5 mM, Avg.: -0.9%
  percent activation (calcium flux, GPCRProfiler), DT-110 @ 12.5 mM, n1: -0.8%
  percent activation (calcium flux, GPCRProfiler), DT-110 @ 12.5 mM, n2: -0.9%
[12]
  percent activation (calcium flux, GPCRProfiler), DT-110 @ 1.25 mM, Avg.: -9.5%
  percent activation (calcium flux, GPCRProfiler), DT-110 @ 1.25 mM, n1: -9.3%
  percent activation (calcium flux, GPCRProfiler), DT-110 @ 1.25 mM, n2: -9.6%
  percent activation (calcium flux, GPCRProfiler), DT-110 @ 12.5 mM, Avg.: 50.2%
  percent activation (calcium flux, GPCRProfiler), DT-110 @ 12.5 mM, n1: 55.9%
  percent activation (calcium flux, GPCRProfiler), DT-110 @ 12.5 mM, n2: 44.5%
[13]
  percent activation (calcium flux, GPCRProfiler), DT-110 @ 1.25 mM, Avg.: -9.5%
  percent activation (calcium flux, GPCRProfiler), DT-110 @ 1.25 mM, n1: -9.4%
  percent activation (calcium flux, GPCRProfiler), DT-110 @ 1.25 mM, n2: -9.6%
  percent activation (calcium flux, GPCRProfiler), DT-110 @ 12.5 mM, Avg.: -9.6%
  percent activation (calcium flux, GPCRProfiler), DT-110 @ 12.5 mM, n1: -9.5%
  percent activation (calcium flux, GPCRProfiler), DT-110 @ 12.5 mM, n2: -9.7%
[14]
  percent activation (calcium flux, GPCRProfiler), DT-110 @ 1.25 mM, Avg.: -0.1%
  percent activation (calcium flux, GPCRProfiler), DT-110 @ 1.25 mM, n1: -7.8%
  percent activation (calcium flux, GPCRProfiler), DT-110 @ 1.25 mM, n2: 7.6%
  percent activation (calcium flux, GPCRProfiler), DT-110 @ 12.5 mM, Avg.: -2.3%
  percent activation (calcium flux, GPCRProfiler), DT-110 @ 12.5 mM, n1: 3.4%
  percent activation (calcium flux, GPCRProfiler), DT-110 @ 12.5 mM, n2: -8%
